Here are results for four molecules from patent CN115819582A (HEFEI TIANGANG IMMUNOLOGY PHARMACEUTICAL CO LTD, dated 2023).

The labels stand for the following.
B1: 鼠单抗mAb003 (antibody, mouse IgG1, kappa, V domains shown)
VH: EVQLQQSGPELVKPGASVRITCKASGYTFTDYNIHWVKQSHGKSLEWIGYIYPYNGGSGYNQKFKSQATLTVDTSSTTAYMEIRSLTSEDSAVYYCAREEVRRDEALDFWGQGTSVTVSS
VL: DIQMTQSPASLSVSVGETVNITCRVSENIYSNLAWYQQKQGKSPQLLVYGASNLPDGVPSRFSGSGSGTQYSLKINTLQSEDFGTYYCQHFWGTPYTFGGGTKLEIKR
notes: Mouse monoclonal antibody from a hybridoma; also called PVRIG抗体
B2: 鼠单抗mAb002 (antibody, mouse IgG1, kappa, V domains shown)
VH: EVQLQQSGPELVKPGASMKISCKASGYSFTGYTMNWVKQSPGKNLEWIGLITPYNNDTSYNQKFKGKATLTVDKSSSTAYMELLSLTSEDSAVYYCARWVYGNYVGWFAYWGQGTLVTVSA
VL: DIVMTQSHKFMSTSVGDRVNITCKASQDVSTSVTWYQQKPGQSPKLLIYSTSYRYTGVPDRFTGSGSGTDFTFTISSVQAEDLAVYYCQQHYSTPWTFGGGTKLEIKR
notes: as for B1
B3: 鼠单抗mAb004 (antibody, mouse IgG1, kappa)
heavy: QVQLQQPGAELVKPGTSVKLSCKASGYNFTSYWINWVKLRPGQGLEWIGDIYPGNYSPNYNEKFLNKATLTTDTASSTAYMQLNNLASEDSAVYYCASGYFDYWGQGTTLIVSAAKTTPPSVYPLAPGSAAQTNSMVTLGCLVKGYFPEPVTVTWNSGSLSSGVHTFPAVLQSDLYTLSSSVTVPSSTWPSETVTCNVAHPASSTKVDKKIVPRDCGCKPCICTVPEVSSVFIFPPKPKDVLTITLTPKVTCVVVDISKDDPEVQFSWFVDDVEVHTAQTQPREEQFNSTFRSVSELPIMHQDWLNGKEFKCRVNSAAFPAPIEKTISKTKGRPKAPQVYTIPPPKEQMAKDKVSLTCMITDFFPEDITVEWQWNGQPAENYKNTQPIMDTDGSYFVYSKLNVQKSNWEAGNTFTCSVLHEGLHNHHTEKSLSHSPGK
light: DIVMTQSPSSLSVSAGEEVIMSCKSSQSLLNSGTQKNYLAWYQQKPGQPPKLLIYGTSTRESGVPDRFTGSGSGTDFTLTINNVQAEDLAIYYCQNDHSYPYTFGGGTKLEIKRADAAPTVSIFPPSSEQLTSGGASVVCFLNNFYPKDINVKWKIDGSERQNGVLNSWTDQDSKDSTYSMSSTLTLTKDEYERHNSYTCEATHKTSTSPIVKSFNRNEC
notes: as for B1
B4: 鼠单抗mAb001 (antibody, mouse IgG1, kappa, V domains shown)
VH: EVQLQQSGPDLVKTGASVKISCKAVGYSFTGYNVHWVKQSHDKSLEWIGYIHFYTGATDYNQKFKDKATFTVDASSNTAYMQFNSLTSEDSAVYYCAIMRWAVDYWGQGTSVTVSS
VL: QIVLTQSPTIMSASPGETVTMTCSVSSSVNYIYWYQQKSGASPKRWIYDTSKLASGVPSRFSGSGSGASYSLTISNMEAEDAATYYCQQWSSNPYTFGGGTKLEIKR
notes: as for B1

This assay deals with T1, 重组人PVRIG-人IgG1 Fc融合蛋白 (human).
T1 construct: The Fc gene was added at the C-terminus of the gene for the PVRIG extracellular domain; no linker or signal peptide is stated; also called 人PVRIG重组蛋白
T1 sequence (chain, as listed by the source limits assumed): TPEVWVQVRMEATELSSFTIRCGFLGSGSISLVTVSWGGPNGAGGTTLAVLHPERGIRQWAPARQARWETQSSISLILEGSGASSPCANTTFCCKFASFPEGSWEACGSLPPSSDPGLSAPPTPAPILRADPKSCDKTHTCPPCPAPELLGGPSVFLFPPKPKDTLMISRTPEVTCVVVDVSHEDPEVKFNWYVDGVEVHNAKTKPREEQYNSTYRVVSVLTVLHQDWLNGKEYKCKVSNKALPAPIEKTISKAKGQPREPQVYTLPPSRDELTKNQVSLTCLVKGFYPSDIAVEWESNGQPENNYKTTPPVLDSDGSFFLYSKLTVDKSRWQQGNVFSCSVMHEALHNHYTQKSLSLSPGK
Description: ELISA, coated PVRIG-Fc 0.5 ug/ml, anti-mouse IgG-HRP.
B1: the binding result is given as “binds”. As to B2, the binding result is reported as “binds”. Then B3, with “binds”. Regarding B4, the binding result is on record as “binds”.
